The results in this text go back to publication doi:10.1101/2025.02.07.637128 (bioRxiv, 2025).

Where “and” joins values, the source holds several entries; their conditions need not be identical. Identical values can stand only once.

The target of one series is Concanavalin A. The series can be described thus: resistive pulse sensing with PLY nanopores.
Series [1] deals with the molecule itself.

As a reminder, the stoichiometry N is the number of molecules, sites or subunits per partner or assembly. For Concanavalin A (natural protein), the stoichiometry N with Concanavalin A is 2 and 4.

B1: Pneumolysin (PLY) toxin (natural protein)
chain: MANKAVNDFILAMNYDKKKLLTHQGESIENRFIKEGNQLPDEFVVIERKKRSLSTNTSDISVTATNDSRLYPGALLVVDETLLENNPTLLAVDRAPMTYSIDLPGLASSDSFLQVEDPSNSSVRGAVNDLLAKWHQDYGQVNNVPARMQYEKITAHSMEQLKVKFGSDFEKTGNSLDIDFNSVHSGEKQIQIVNFKQIYYTVSVDAVKNPGDVFQDTVTVEDLKQRGISAERPLVYISSVAYGRQVYLKLETTSKSDEVEAAFEALIKGVKVAPQTEWKQILDNTEVKAVILGGDPSSGARVVTGKVDMVEDLIQEGSRFTADHPGLPISYTTSFLRDNVVATFQNSTDYVETKVTAYRNGDLLLDHSGAYVAQYYITWDELSYDHQGKEVLTPKAWDRNGQDLTAHFTTSIPLKGNVRNLSVKIRECTGLAWEWWRTVYEKTDLPLVRKRTISIWGTTLYPQVEDKVEND
B1: the “stoichiometry N” value in series [1] amounted to 35 ± 2 monomers.
